Measurements as given in patent publication US20190330362A1 (GOVERNING COUNCIL OF THE UNIVERSITY OF TORONTO, published 2019).

What was measured:
[1] = biological target: T1, human CD133 (GenBank Accession O43490) (human, UniProt O43490 20-865); test: flow cytometry, serial dilutions on HEK293-CD133 cells, anti-human Fab'2 secondary antibody
T1 construct: Full-length human CD133 overexpressed in HEK293-CD133 cells, or endogenous on Caco-2, HPAC, PL45, RWP-1 and GBM cells; In the Western blots the same protein is denatured in whole cell lysate; also called Prominin-1; cell surface CD133
T1 sequence: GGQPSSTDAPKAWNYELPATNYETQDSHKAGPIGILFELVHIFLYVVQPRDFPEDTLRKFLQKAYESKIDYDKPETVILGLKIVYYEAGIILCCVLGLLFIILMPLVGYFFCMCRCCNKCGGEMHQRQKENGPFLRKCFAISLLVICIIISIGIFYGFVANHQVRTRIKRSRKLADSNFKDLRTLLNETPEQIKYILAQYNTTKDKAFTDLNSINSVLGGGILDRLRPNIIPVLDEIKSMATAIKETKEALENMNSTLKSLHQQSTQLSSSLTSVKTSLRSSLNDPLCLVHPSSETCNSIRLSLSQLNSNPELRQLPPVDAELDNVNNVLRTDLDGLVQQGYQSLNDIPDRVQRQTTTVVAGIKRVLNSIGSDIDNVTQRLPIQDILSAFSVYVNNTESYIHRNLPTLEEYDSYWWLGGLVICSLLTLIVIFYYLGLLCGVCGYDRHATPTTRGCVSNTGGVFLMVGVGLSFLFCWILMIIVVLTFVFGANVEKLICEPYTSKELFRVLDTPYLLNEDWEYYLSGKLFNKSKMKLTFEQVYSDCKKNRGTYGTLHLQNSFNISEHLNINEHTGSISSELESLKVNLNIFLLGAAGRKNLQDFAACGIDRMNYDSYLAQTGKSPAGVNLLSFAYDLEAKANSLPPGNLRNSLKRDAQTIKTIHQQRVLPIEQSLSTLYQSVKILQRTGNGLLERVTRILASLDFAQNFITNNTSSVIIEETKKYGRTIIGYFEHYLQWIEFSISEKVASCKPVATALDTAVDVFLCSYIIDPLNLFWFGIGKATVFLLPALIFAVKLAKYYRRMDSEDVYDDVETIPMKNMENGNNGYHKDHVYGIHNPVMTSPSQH

[2] = biological target: T1, human CD133 (GenBank Accession O43490); test: competitive flow cytometry on CD133-expressing cells first incubated with 25 nM Fab RW01, secondary antibody against human Fc
[3] = biological target: T1, human CD133 (GenBank Accession O43490); test: flow cytometry on CD133-expressing cells (cell line not given), IgG alone, secondary antibody against human Fc
[4] = biological target: T1, human CD133 (GenBank Accession O43490); test: cell-based phage ELISA (OD450)
Experimental: Following cell selections, round four output phage for each library was plated for single colonies. These colonies were grown up in an overnight culture and tested for binding to cells by cell-based ELISA. The plates were read and OD450 nm was detected and recorded. The assay measured binding of clones to CD133-overexpressing HEK293-CD133 cells (under “CD133” column headers) vs parental HEK293 cells (under “HEK293” column headers).
After four rounds of positive and negative selection, serial dilutions were made of the round four output phage (10E-1 to 10E-3) for each library and used to infect XL1-blue cells. The infected cells were plated for isolating single colonies to be used in a clonal cell-based ELISA for isolating CD133-specific binders.

B1: IgG RW03 (antibody, V domains shown)
VH: EVQLVESGGGLVQPGGSLRLSCAASGFNLSSSSIHWVRQAPGKGLEWVAYIYPYYSYTYYADSVKGRFTISADTSKNTAYLQMNSLRAEDTAVYYCARFGSVAGFDYWGQGTLVTVSS
VL: DIQMTQSPSSLSASVGDRVTITCRASQSVSSAVAWYQQKPGKAPKLLIYSASSLYSGVPSRFSGSRSGTDFTLTISSLQPEDFATYYCQQYSHAGHLFTFGQGTKVEIKR
notes: Human IgG1 (hG1) with kappa light chain (hK); variable region of Fab RW03 (Library F); also called RW03 IgG; lIgG RW03
[1]
  EC50: 0.5 nM
[2]
  EC50 (read off the curve): ~1 nM
[3]
  EC50 (read off the curve): ~1 nM

B2: phage-Fab RW03 (Fab, V domains shown)
VH: EVQLVESGGGLVQPGGSLRLSCAASGFNLSSSSIHWVRQAPGKGLEWVAYIYPYYSYTYYADSVKGRFTISADTSKNTAYLQMNSLRAEDTAVYYCARFGSVAGFDYWGQGTLVTVSS
VL: DIQMTQSPSSLSASVGDRVTITCRASQSVSSAVAWYQQKPGKAPKLLIYSASSLYSGVPSRFSGSRSGTDFTLTISSLQPEDFATYYCQQYSHAGHLFTFGQGTKVEIK
notes: also called phage-Fab clone RW03; RW03 clone
[4]
  fold binding to HEK293-CD133 cells vs HEK293 cells: ≥ 1.5 fold

B3: IgG RW01 (antibody, V domains shown)
VH: EVQLVESGGGLVQPGGSLRLSCAASGFNIYYYGSMHWVRQAPGKGLEWVASISPYYGSTYYADSVKGRFTISADTSKNTAYLQMNSLRAEDTAVYYCARHASSGYGHYAVYGIDYWGQGTLVTVSS
VL: DIQMTQSPSSLSASVGDRVTITCRASQGSSYVAWYQQKPGKAPKLLIYSASYLYSGVPSRFSGSRSGTDFTLTISSLQPEDFATYYCQQGVWSLITFGQGTKVEIKR
notes: also called RW01 IgG; lIgG RW01
[1]
  EC50: 2.5 nM
